Reference: publication PMC9841416

Target: NTH-RNase E wild type (Escherichia coli (K12, P21513-1 in alignment)) (UniProt P21513)
Experiment: competition
Settings: competitor of 7.5 nM BR15 quadruplex, 20 nM NTH, 25 mM bis-Tris propane pH 8.3, 100 mM KCl, 15 mM CaCl2, 0.1% (v/v) Triton X-100, 1 mM DTT, 20% (v/v) glycerol, 37 C 20 min, 1% agarose gel in 1x TBE

Substance	IC50 (does not compete effectively)	IC50
glnW-tRNA (no flanking single-stranded regions)	> 2500 nM	
metU-tRNA with 5' and 3' single-stranded regions		147 nM
glnW-metU segment		229 nM
